Source: patent publication US20190033318A1 (UNIVERSITY OF SOUTHAMPTON, published 2019)

Tests used:
[1] = biological target: T1, 1α PASB (HIF-1α PASB domain, 238-349) (UniProt Q16665 238-349, labelled with NT-647-NHS dye in MST); assay: MST, peptide titrated into fluorescently labelled 1α PASB
T1 construct: range 238-349; not shown: His6 tag of vector pET28, then Met
Procedure: (§1) Microscale thermophoresis (MST) was performed to determine Kd of peptide binding to fluorescently labelled HIF-1α/2α PASB domains.
(§2) 0.5 mL of 1α or 2α PASB protein stocks in HIF storage/assay buffer were dialysed against 1 L of MST labelling buffer (100 mM NaHCO₃ pH 8, 150 mM NaCl and 5% glycerol) for 1.5 hr at 4° C., then against 1 L of fresh labelling buffer at 4° C. overnight. 100 μL of each dialysed protein diluted to 10 μM were incubated with 100 μL of 30 μM NT-647-NHS dye (NanoTemper protein labelling kit) for 20 min in the dark, then exchanged into 650 μL HIF assay buffer supplemented with 0.05% Tween-20 using the supplied gravity flow purification columns. A dilution series of cyclo-CRVIIF (SEQ ID NO 4) or alanine scan analogues (in HIF assay buffer, 10% DMSO) was mixed with equal volumes of labelled 1α PASB or 2α PASB at 100 nM and allowed to equilibrate for 10 min. Samples were loaded into hydrophilic capillaries and, after optimising the power, MST was performed using a Monolith […] instrument (NanoTemper). Data were analysed using NT Analysis Software using the Temperature Jump analysis mode.

[2] = biological target: T2, 2α PASB (HIF-2α PASB domain, 240-350) (UniProt Q99814 240-350, labelled with NT-647-NHS dye in MST; 15N (and 13C 15N) labelled in NMR); assay: MST, peptide titrated into fluorescently labelled 2α PASB
T2 construct: range 240-350; also called PAS B domain of HIF-2α; not shown: His6 tag of vector pET28, then Met
Procedure: as §1, §2

[3] = biological target: T1, 1α PASB (HIF-1α PASB domain, 238-349); assay: thermal shift assay, 1 mM peptide
Procedure: (§3) Thermal denaturation of HIF proteins was performed in 20 μL reactions in triplicate using a Bio-Rad CFX Connect Real-Time System. Proteins were used at either 5 μM (Trx-1α, Trx-2α and GST-1β) or 15 μM (His-tagged PASB domains) in HIF assay buffer, with 10 mM DTT and SYPRO orange dye (Life Technologies) at a final concentration of 8×(relative to 5000×stock), and supplemented with either DMSO or compound dissolved in DMSO at the stated concentrations. The reaction plate was assembled on ice, then transferred to the pre-chilled thermal cycler, held at 10° C. for 5 min (heated lid, 105° C.), then the temperature ramped to 95° C. Fluorescence was recorded at 0.5° C. increments, holding for 5 sec at each temperature. Data were plotted using GraphPad Prism 6, and melting temperatures calculated using the first derivative method in which the peak (i.e. the steepest transition between data points) represents the point at which 50% of the protein sample is denatured. Errors are quoted as the inherent error associated with the first derivative of the data, i.e. ±0.25° C. for Tₘ values and ±0.5° C. for ΔTₘ values.

[4] = biological target: T3, 1β PASB (HIF-1β PASB domain, 356-474) (UniProt P27540 356-474); assay: thermal shift assay, 1 mM peptide
T3 construct: range 356-474; not shown: His6 tag of vector pET28
Procedure: as §3

[5] = biological target: T4, Trx-2α (thioredoxin-tagged HIF-2α 1-360, bHLH-PASA-PASB) (UniProt Q99814 1-360); assay: thermal shift assay, 1 mM peptide
T4 construct: range 1-360; not shown: Thioredoxin-His6 tag of vector pET32
Procedure: as §3

[6] = biological target: T5, Trx-1α (thioredoxin-tagged HIF-1α 1-350, bHLH-PASA-PASB) (UniProt Q16665 1-350); assay: thermal shift assay, 1 mM peptide
T5 construct: range 1-350; not shown: Thioredoxin-His6 tag of vector pET32
Procedure: as §3

[7] = biological target: T2, 2α PASB (HIF-2α PASB domain, 240-350); assay: thermal shift assay, 1 mM peptide
Procedure: as §3

[8] = biological target: T5, Trx-1α (thioredoxin-tagged HIF-1α …); assay: ELISA, Trx-1α on Ni plate, inhibition of GST-1β binding
Procedure: (§4) IC₅₀ values for the compound=3.7 μM/8.8 μM for 1α/2α.
(§5) 25 μL of His-tagged HIF-α protein (either Trx-1α, Trx-2α, 1α PASB, or 2α PASB) at 0.1 μM in HIF assay buffer were added to individual wells of a Pierce Ni²⁺-coated 96-well plate (Thermo) in triplicate. The plate was rocked gently at room temperature for 1 hr, before washing with 3×200 μL assay buffer (5 min incubation per wash). 25 μL of compounds and/or DMSO at the stated concentrations were added to the plate and allowed to equilibrate for 30 min prior to the addition of 25 μL of GST-1β at 0.2 μM in assay buffer for 1 hr. For conditions in which no compound or DMSO were used, GST-1β was added as a 0.1 μM solution. After incubation with GST-1β, the wells were washed with 3×200 μL assay buffer then 1×200 μL PBS. The wells were then incubated with 100 μL mouse α-GST antibody (Thermo, MS-707-P) at a 1/1000 dilution in PBS supplemented with 0.1% Tween-20 (PBST) and 2% non-fat powdered milk (Marvel) for 1 hr, followed by 3×200 μL washed with PBS. 100 μL of secondary HRP-conjugated α-mouse antibody (GE Healthcare) was added at a 1/6000 dilution in 2% milk/PBST for 1 hr, then washed with 3×200 μL PBS. […] Absorbance was read at 450 nm using a Tecan Infinite M200 Pro plate reader. Data were fitted and IC₅₀ values determined by non-linear regression using GraphPad Prism 6.

[9] = biological target: T4, Trx-2α (thioredoxin-tagged HIF-2α …); assay: ELISA, Trx-2α on Ni plate, inhibition of GST-1β binding
Procedure: as §4, §5

[10] = biological target: T2, 2α PASB (HIF-2α PASB domain, 240-350); assay: fluorescence polarisation, 2α PASB titrated into 2 µM fluor-CRVIIF
Procedure: Kd values were determined by fluorescence polarisation (FP) using fluorescently labelled cyclo-CRVIIF (fluor-CRVIIF) (SEQ ID NO 4) dissolved in DMSO as the probe. In each condition, the concentration of the probe was kept constant (2 μM, 1% DMSO) whilst proteins were titrated. Reactions were performed in HIF assay buffer with the addition of 0.1% Triton X-100. Samples were assembled in black 96-well plates (40 μL/well, in triplicate) and allowed to equilibrate for 2 hr in the dark. Plates were read using a POLARstar Omega plate reader (BMG Labtech) at Ex: 490 nm, Em: 520 nm, with target gain set to 300 mP. Polarisation data were plotted and Kd values calculated by non-linear regression using GraphPad Prism 6.

[11] = biological target: T6, HIF-2α (construct not given) (UniProt Q99814 1-360, limits assumed); assay: HIF-2 ELISA, inhibition of HIF-2α/HIF-1β dimerisation
T6 construct: also called HIF-2 ELISA

[12] = biological target: T1, 1α PASB (HIF-1α PASB domain, 238-349); assay: ELISA, 1α PASB on Ni plate, inhibition of GST-1β binding
Procedure: (§6) ELISA assays were conducted using 1α/2α PASB domains.
as §5

[13] = biological target: T5, Trx-1α (thioredoxin-tagged HIF-1α …); assay: competition ELISA: His-tagged Trx-1α on Ni plate, peptide titrated, binding of GST-1β (blocked partner) detected with anti-GST, A450
Procedure: as §4, §5

[14] = biological target: T4, Trx-2α (thioredoxin-tagged HIF-2α …); assay: competition ELISA: His-tagged Trx-2α on Ni plate, peptide titrated, binding of GST-1β (blocked partner) detected with anti-GST, A450
Procedure: as §4, §5

[15] = biological target: T2, 2α PASB (HIF-2α PASB domain, 240-350); assay: ELISA, 2α PASB on Ni plate, inhibition of GST-1β binding
Procedure: as §6, §5

[16] = biological target: T2, 2α PASB (HIF-2α PASB domain, 240-350); assay: competition ELISA: 2α PASB on Ni plate, peptide titrated, blocked partner GST-1β; the value stands in the panel without a name, the ELISA fits give IC50; the fall is only partial
Procedure: as §5

[17] = biological target: T1, 1α PASB (HIF-1α PASB domain, 238-349); assay: competition ELISA: 1α PASB on Ni plate, peptide titrated, blocked partner GST-1β; the value stands in the panel without a name, the ELISA fits give IC50; the fall is only partial
Procedure: as §5

[18] = biological target: T1, 1α PASB (HIF-1α PASB domain, 238-349); assay: competition ELISA: 1α PASB on Ni plate, peptide titrated, blocked partner GST-1β; the value stands in the panel without a name, the ELISA fits give IC50
Procedure: as §5

[19] = biological target: T2, 2α PASB (HIF-2α PASB domain, 240-350); assay: competition ELISA: 2α PASB on Ni plate, peptide titrated, blocked partner GST-1β; the value stands in the panel without a name, the ELISA fits give IC50
Procedure: as §5

T2 sequence (Q99814 240-350): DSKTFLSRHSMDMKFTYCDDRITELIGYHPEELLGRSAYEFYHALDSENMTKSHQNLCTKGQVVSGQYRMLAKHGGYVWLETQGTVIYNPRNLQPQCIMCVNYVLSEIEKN
T4 sequence (Q99814 1-360): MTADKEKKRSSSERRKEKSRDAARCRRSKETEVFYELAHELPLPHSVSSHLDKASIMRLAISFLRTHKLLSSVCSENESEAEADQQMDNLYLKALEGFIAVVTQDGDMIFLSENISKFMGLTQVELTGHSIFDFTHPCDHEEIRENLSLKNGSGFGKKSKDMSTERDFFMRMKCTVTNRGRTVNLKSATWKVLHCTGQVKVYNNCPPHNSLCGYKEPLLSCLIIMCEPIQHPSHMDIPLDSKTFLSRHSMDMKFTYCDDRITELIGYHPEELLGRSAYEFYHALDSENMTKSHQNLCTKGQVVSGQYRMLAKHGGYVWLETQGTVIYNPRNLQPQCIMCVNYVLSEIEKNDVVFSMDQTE
T3 sequence (P27540 356-474): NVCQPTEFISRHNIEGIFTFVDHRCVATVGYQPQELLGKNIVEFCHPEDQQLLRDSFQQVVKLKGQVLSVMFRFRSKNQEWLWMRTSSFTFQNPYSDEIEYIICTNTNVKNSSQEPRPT
T6 sequence (Q99814 1-360 limits assumed): as the sequence (Q99814 1-360) above

B1: cyclo-CKLIIF (SEQ ID NO 2) (peptide)
peptide: CKLIIF
modifications: cyclic peptide (first amino acid joined to the last)
[1]
  Kd: 2.5 µM
[2]
  Kd: 4.6 µM
[3]
  ΔTm: -1 ° C.
[4]
  ΔTm: -0.5 ° C.
[5]
  ΔTm: -2.5 ° C.
[6]
  ΔTm: -1.5 ° C.
[7]
  ΔTm: -2.5 ° C.
[8]
  IC50: 3.7 µM
[9]
  IC50: 8.8 µM

B2: fluorescently labelled cyclo-CRVIIF (fluor-CRVIIF) (SEQ ID NO 4) (peptide)
peptide: cyclo(C(FITC‑maleimide)RVIIF)
modifications: not fully specified; printed as fluor-CRVIIF
notes: also called FITC-CRVIIF
[10]
  Kd: 18.5 µM
[11]
  Activity as measured by a HIF-2 ELISA: 1.46 µM

B3: cyclo-CRVIIF (SEQ ID NO 4) (peptide)
peptide: CRVIIF
modifications: cyclic peptide (cyclo-, first amino acid joined to the last)
notes: also called Compound C
[1]
  Kd: 158 µM
[12]
  IC50: 5.4 µM
[13]
  IC50: 115 µM
[2]
  Kd: 133 µM
[14]
  IC50: 244 µM
[3]
  ΔTm: -1.5 ° C.
[4]
  ΔTm: -0.5 ° C.
[5]
  ΔTm: -2 ° C.
[6]
  ΔTm: -1 ° C.
[7]
  ΔTm: -2.5 ° C.
[15]
  IC50: 15.2 µM

B4: CRVIIA (peptide)
peptide: CRVIIA
notes: also called alanine scan peptide of CRVIIF, position 6 (F to A)
[16]
  IC50: 37.1 µM
[17]
  IC50: 110 µM

B5: CAVIIF (peptide)
peptide: CAVIIF
notes: also called alanine scan peptide of CRVIIF, position 2 (R to A)
[18]
  IC50: 112 µM
[19]
  IC50: 22.3 µM
